Results on 39 sequences are retold here after the supplement of paper PMC7877785.

± gives the uncertainty stated by the source.

The data set in a line: self-splicing fitness, log relative to wild type (ln ratio); higher = more splicing; Tetrahymena group I intron in knt gene, E. coli kanamycin selection, DiMSum; sequences stand for … in CUCUCU…GGAGGGAAAAGUUAUCAGGCAUGCACCUGGUAGCUAGUCUUUAAACCAAUAGAUUGCAUCGGUUUAAAAGGCAAGACCGUCAAAUUGCGGGAAAGGGGUCAACAGCCGUUCAGUACCAAGUCUCAGGGGAAACUUUGAGAUGGCCUUGCAAAGGGUAUGGUAAUAAGCUGACGGACAUGGUCCUAACCACGCAGCCAAGUCCUAAGUCAACAGAUCUUCUGUUGAUAUGGAUGCAGUUCACAGACUAAAUGUCGGUCGGGGAAGAUGUAUUCUUCUCAUAAGAUAUAGUCGGACCUCUCCUUAAUGGGAGCUAGCGGAUGAAGUGAUGCAACACUGGAGCCGCUGGGAACUAAUUUGUAUGCGAAAGUAUAUUGAUUAGUUUUGGAGUACUCGUGGUCG
Put shortly: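 Library with all eight P1ex-region intron nucleotides randomised, intron inside the knt kanamycin-resistance gene on pET-22b(+), in E. coli BL21(DE3). Cells grew overnight at 37°C or 30°C on LB agar with or without 25 μg/mL kanamycin (plus 100 μg/mL carbenicillin, 50 μM IPTG, 0.2% rhamnose), in six replicate transformations. Pooled colonies were amplicon-sequenced on Illumina HiSeq 2500. DiMSum fitness is the error-weighted combination of wild-type-normalised replicate fold changes, kanamycin versus none.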

In the case of CUAGAGCAAUAUUACGUAAU, the “self-splicing fitness (ln)” value is, setting by setting: (30 °C) -3.79 ± 0.2; (37 °C) -2.22 ± 0.23.

For GAACAGCAAUAUUACGGGUG, the “self-splicing fitness (ln)” value is, setting by setting: (30 °C) -1.88 ± 0.072; (37 °C) -1.59 ± 0.092.

Take GGUAAGCAAUAUUACGCUGC: where the note is “30 °C”, the “self-splicing fitness (ln)” value was -2.94 ± 0.2.

As for AAUUAGCAAUAUUACGGAGA, the “self-splicing fitness (ln)” value (30 °C) is -3.3 ± 0.45 and the “self-splicing fitness (ln)” value (37 °C) is -1.98 ± 0.36.

For the sequence GGUAAGCAAUAUUACGAACC, the “self-splicing fitness (ln)” value (37 °C) was -1.64 ± 0.42.

On to AUCAAGCAAUAUUACGUAAA, for which the “self-splicing fitness (ln)” value (30 °C) was -2.59 ± 0.13 and the “self-splicing fitness (ln)” value (37 °C) is -1.11 ± 0.12.

As to GCACAGCAAUAUUACGAAUG, the “self-splicing fitness (ln)” value runs as follows: (30 °C) -1.89 ± 0.051; (37 °C) -1.09 ± 0.063.

GAGUAGCAAUAUUACGGAUC: the “self-splicing fitness (ln)” value reads like this: (30 °C) -0.928 ± 0.092; (37 °C) -0.167 ± 0.12.

Take AGGAAGCAAUAUUACGGGGG: the “self-splicing fitness (ln)” value (37 °C) was -1.89 ± 0.36.

For AGGCAGCAAUAUUACGACGC, the “self-splicing fitness (ln)” value (30 °C) was -0.638 ± 0.12 and the “self-splicing fitness (ln)” value (37 °C) was -0.663 ± 0.14.

On to UCAAAGCAAUAUUACGCGUA, for which the “self-splicing fitness (ln)” value runs as follows: (30 °C) -0.554 ± 0.1; (37 °C) -0.355 ± 0.099.

On to CUUAAGCAAUAUUACGUCGU, for which the “self-splicing fitness (ln)” value by setting is: (30 °C) -4.59 ± 0.46; (37 °C) -2.22 ± 0.29.

With UAGGAGCAAUAUUACGAGCC, the “self-splicing fitness (ln)” value by setting is: (30 °C) -3.1 ± 0.3; (37 °C) -2.82 ± 0.47.

Regarding ACCGAGCAAUAUUACGAACG, the “self-splicing fitness (ln)” value is, setting by setting: (30 °C) -2.36 ± 0.2; (37 °C) -0.527 ± 0.22.

With CCGAAGCAAUAUUACGUGCG, the “self-splicing fitness (ln)” value (30 °C) is -1.04 ± 0.085 and the “self-splicing fitness (ln)” value (37 °C) is -0.542 ± 0.096.

For the sequence AGGUAGCAAUAUUACGUCGA, the “self-splicing fitness (ln)” value (30 °C) is -1.4 ± 0.016 and the “self-splicing fitness (ln)” value (37 °C) was -0.563 ± 0.033.

Take CUGUAGCAAUAUUACGGCUG: the “self-splicing fitness (ln)” value (30 °C) is -0.442 ± 0.099 and the “self-splicing fitness (ln)” value (37 °C) is -0.0988 ± 0.13.

For the sequence UCGCAGCAAUAUUACGAGUU, the “self-splicing fitness (ln)” value by setting is: (30 °C) -4.47 ± 0.28; (37 °C) -1.95 ± 0.23.

On to CGCCAGCAAUAUUACGCCUG, for which the “self-splicing fitness (ln)” value (30 °C) was -1.21 ± 0.1 and the “self-splicing fitness (ln)” value (37 °C) is -0.608 ± 0.096.

In the case of CAGAAGCAAUAUUACGACAC, the “self-splicing fitness (ln)” value (37 °C) was -2.1 ± 0.29.

In the case of AGGUAGCAAUAUUACGCACC, the “self-splicing fitness (ln)” value runs as follows: (30 °C) -2.33 ± 0.031; (37 °C) -1.26 ± 0.042.

Regarding CCUCAGCAAUAUUACGUAAA, the “self-splicing fitness (ln)” value is -3.87 ± 0.24 (30 °C) and -3.05 ± 0.29 (37 °C).

In the case of UUCUAGCAAUAUUACGUGAC, the “self-splicing fitness (ln)” value by setting is: (30 °C) -3.69 ± 0.31; (37 °C) -1.61 ± 0.24.

With AUCAAGCAAUAUUACGCAAG, the “self-splicing fitness (ln)” value is, setting by setting: (30 °C) -1.99 ± 0.15; (37 °C) -0.935 ± 0.15.

On to CGCCAGCAAUAUUACGAAAA, for which the “self-splicing fitness (ln)” value (30 °C) was -3.4 ± 0.29 and the “self-splicing fitness (ln)” value (37 °C) was -2.7 ± 0.2.

With GAUUAGCAAUAUUACGCAAC, the “self-splicing fitness (ln)” value by setting is: (30 °C) -3.22 ± 0.26; (37 °C) -1.89 ± 0.19.

Take CCUGAGCAAUAUUACGGCGU: the “self-splicing fitness (ln)” value reads like this: (30 °C) -3.51 ± 0.2; (37 °C) -2.88 ± 0.19.

Turning to CUCGAGCAAUAUUACGAAGG, the “self-splicing fitness (ln)” value runs as follows: (30 °C) -2.2 ± 0.27; (37 °C) -1.38 ± 0.41.

GAUCAGCAAUAUUACGUCAG: the “self-splicing fitness (ln)” value was -4.35 ± 0.43 (30 °C) and -2.43 ± 0.28 (37 °C).

With AAUUAGCAAUAUUACGCGAU, the “self-splicing fitness (ln)” value is, setting by setting: (30 °C) -3.62 ± 0.32; (37 °C) -2.31 ± 0.23.

As to GAUAAGCAAUAUUACGACCU, the “self-splicing fitness (ln)” value is, setting by setting: (30 °C) -0.864 ± 0.086; (37 °C) 0.36 ± 0.1.

Take AGUUAGCAAUAUUACGAGCU: the “self-splicing fitness (ln)” value by setting is: (30 °C) -1.97 ± 0.15; (37 °C) -0.796 ± 0.17.

Regarding UUUUAGCAAUAUUACGUGAA, the “self-splicing fitness (ln)” value (30 °C) is -1.14 ± 0.074 and the “self-splicing fitness (ln)” value (37 °C) is -0.89 ± 0.1.

Take UAGGAGCAAUAUUACGGCGA: the “self-splicing fitness (ln)” value is -1.51 ± 0.17 (30 °C) and -1.46 ± 0.18 (37 °C).

UGCAAGCAAUAUUACGCGAA: the “self-splicing fitness (ln)” value is -2.03 ± 0.1 (30 °C) and -0.581 ± 0.083 (37 °C).

On to ACUGAGCAAUAUUACGCAAA, for which the “self-splicing fitness (ln)” value was -2.29 ± 0.38 (30 °C) and -1.93 ± 0.34 (37 °C).

Regarding CUAAAGCAAUAUUACGAGCG, the “self-splicing fitness (ln)” value turned out to be 0.136 ± 0.057 (30 °C) and 0.289 ± 0.073 (37 °C).

As to GUAAAGCAAUAUUACGUAAA, the “self-splicing fitness (ln)” value reads like this: (30 °C) -2.08 ± 0.1; (37 °C) -0.853 ± 0.11.

Consider ACCUAGCAAUAUUACGGAAG, for which the “self-splicing fitness (ln)” value was -2.8 ± 0.23 (30 °C) and -2.38 ± 0.19 (37 °C).
